From US20230349919A1 (Regeneron, published 2023)
Positions count from the first letter of the chain named.

T1: Der p 2 (house dust mite, UniProt P49278 18-146)
T1 construct: Also used oligonucleotide-barcoded for cell staining
T1 sequence (looked up): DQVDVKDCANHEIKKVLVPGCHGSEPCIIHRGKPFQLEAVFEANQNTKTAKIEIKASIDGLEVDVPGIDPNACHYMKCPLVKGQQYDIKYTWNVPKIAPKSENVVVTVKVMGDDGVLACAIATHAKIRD

T2: Ole e 1 (olive, UniProt P19963 1-145)
T2 construct: Also used oligonucleotide-barcoded for cell staining; also called olive allergen; negative control allergen
T2 sequence (looked up): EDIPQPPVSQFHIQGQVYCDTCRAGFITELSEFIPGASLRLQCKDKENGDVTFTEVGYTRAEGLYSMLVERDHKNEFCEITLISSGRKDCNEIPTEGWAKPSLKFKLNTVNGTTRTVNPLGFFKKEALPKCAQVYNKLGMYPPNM

B1: Table 1 Line # 5 antibody (BM_Plasma_cell) (antibody, V domains shown)
VH: QVQLVQSGAEVKKPGASVKVSCKASGYTFTGYYIYWVRQAPGQGLEWMGWINPNSGGTNYAQKFQGRVTMTRDTSISTVYMELSRLRSDDAAVYYCAKRKRGLDGWGQGTTVTVSS
VL: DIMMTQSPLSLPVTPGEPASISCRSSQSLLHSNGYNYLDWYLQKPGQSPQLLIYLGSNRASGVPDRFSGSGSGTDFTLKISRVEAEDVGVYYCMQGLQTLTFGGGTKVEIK
notes: Cloned with human IgG4/human Igk constants for Kd; barcode counts are of the source cell's own IgG
B2: Table 1 Line # 12 antibody (BM_Plasma_cell) (antibody, human IgG4, V domains shown)
VH: QVQLVESGGGVVQPGRSLRLSCAASGFTFSSYGMHWVRQAPGKGLEWVSVISYDGSNKYYADSVKGRFTISRDNSKNTLFLQVNSLRAEDTAVYYCAKEGRTGFDYWGQGTLVTVSS
VL: DIQMTQSPSSLSASVGDRVTITCRARQGISNYLAWFQQKPGKVPKLLIYAASTLQSGVPSRFSGSGSGTDFTLTISSLQPEDVATYYCQKYNSAPWTFGQGTKVEIK
notes: as for B1
B3: Table 1 Line # 32 antibody (SP_B_cell) (antibody, human IgG4, V domains shown)
VH: EVQLVESGGGLVQPGRSLRLSCAASGFTFDDYAMHWVRQAPGKGLEWVSGVNWNGVSLGYADSVKGRFTISRDNAKNSLYLQMNSLRAEDTAFYYCAKDSGSYHYYYGMDGWGQGTTVTVSS
VL: DIQMTQSPSSLSASVGDRVTITCRASQGIRNDLGWYQQKPGKDPKRLIFAATNLHGGVPSRFSGGVSGTEFTLTISSLQPEDFATYYCLQHNSYPLTFGGGTKVEIK
notes: as for B1
B4: Table 1 Line # 6 antibody (BM_Plasma_cell) (antibody, human IgG4, V domains shown)
VH: EVQLVESGGDLVQPGRSLRLSCAASGFTFDDYAMHWVRQAPGKGLEWVSGISWNGNSLGYVDSVKGRFTVSRDNAKNSLYLQMNSLRAEDTALYYCTKDTGSYHSYYGLDVWGQGTTVTVSS
VL: B3 VL with D43A, F49Y, T52S, N53S, H55P, G56S, G65S, V66G, H91L, S93T
notes: as for B1
B5: Table 1 Line # 26 antibody (SP_B_cell) (antibody, human IgG4, V domains shown)
VH: QVQLQQSGPGLVKPSQTLSLTCAISGDSVSSNIATWNWIRQSPSRGLECLGRTYYRSKWYSDYAVSVKSRITINPDTSKNQFSLQLNSVTPEDTAVYYCARGWNYGYYFDYWGQGTLVTVSS
VL: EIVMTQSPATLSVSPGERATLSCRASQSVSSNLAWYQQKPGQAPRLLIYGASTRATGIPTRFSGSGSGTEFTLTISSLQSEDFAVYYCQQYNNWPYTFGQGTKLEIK
notes: as for B1
B6: Table 1 Line # 25 antibody (SP_B_cell) (antibody, human IgG4, V domains shown)
VH: EVQLVESGGTVERPGGSLRLSCAASGFTFDDYGMSWVRQAPGKGLEWVSGTSWNGGHIGYADSVKGRFIISRDNAKNSLYLQINSLRVEDTALYYCTRDSTSSWYGVFDFWGQGTLVTVSS
VL: DIQMTQSPSSLSASVGDRVTITCRASQDISINLAWYQQKPGKTPKLLIYAAASTLQSGVPSRFSGSGSGTDFTLTISSLQPEDVATYYCQNYNSAPRTFGQGTKVEIK
notes: as for B1
B7: Table 1 Line # 28 antibody (SP_B_cell) (antibody, human IgG4, V domains shown)
VH: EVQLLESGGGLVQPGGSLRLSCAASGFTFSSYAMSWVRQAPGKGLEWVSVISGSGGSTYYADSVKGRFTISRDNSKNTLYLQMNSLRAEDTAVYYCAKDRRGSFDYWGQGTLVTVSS
VL: DIQMTQSPSSVSASVGDRVTITCRASQGISSWFAWYQQKPGKAPKLLIYAASSLLSGVPSRFSGSGSGTDFTLTISSLQPEDFATYYCQQANSFPFTFGPGTKVDFK
notes: as for B1
B8: Table 1 Line # 29 antibody (SP_B_cell) (antibody, V domains shown)
VH: EVQLLESGGGLVQPGGSLRLSCAASGFTFSSYAMSWVRQAPGKGLEWVSAISGSGGSTYYADSVKGRFTISRDNSKNTLYLQMNSLRAEDTAIYYCARYGNWNYIWGQGTLVTVSS
VL: B7 VL with F33L, L55Q, F96L, P100G, D105E, F106I
B9: Table 1 Line # 3 antibody (BM_Plasma_cell) (antibody, human IgG4, V domains shown)
VH: EVQLVESGGGLVQPGRSLRLSCAASGFTFDDYAMHWVRQVTGKGLEWVSGINWNSGNIGYADSVRGRFTISRDNAKNSLYLQMNSLRAEDTALYYCAKDSGSSWYGYFDLWGRGTLVTVSS
VL: DIQMTQSPSTLSASVGDRVTITCRASQSISRWLAWYQQKPGKAPKFLIYKASSLESGVPSRFSGSGSGTEFTLTISSLQPDDFATYYCQQYNSDSRTFGQGTKVEIK
notes: as for B1
B10: Candidate ID 16 (antibody, V domains shown)
VH: EVHLQQSGPDLVKPGASVMISCQASGYSFTAYYINWVKQSPEKSLEWIGEINPGSGGVIYNRKFEAKATLIVDKSSNTAFMLLTRLTSEDSAIYYCARKGFYQFDYWGQGTTLTVSS
VL: SVVMTQIPKFLVVSAGDRVTITCKASQSVNDGVFWYQQKTGQSPKLVIYHTSNRYTGVSDRFTGSGYGTEFTFTISAVQSEDLAIYFCQQDYTSPLTFGGGTRLEIK
notes: IgE PCs LN
B11: IgE mAb 17_2 (antibody, V domains shown)
VH: B10 VH
VL: B10 VL
notes: IgE (IGHE, IGKC) from HDM-exposed mouse, LymphNode
B12: IgE mAb 8_2 (antibody, V domains shown)
VH: QVLLKESGPGLVAPSQSLSITCTVSGFSLTSYGVSWVRQPPGKGLEWLGVIWGDGNTDYHSALISRLSIRKDNSKSQVFLKLNSLQTDDTATYYCAIGSPFAYWGQGTLVTVSA
VL: DVLMTQTPLSLPVSLGDQVSISCRSSQNIVHSTGNTYLEWYLQKPGQSPKLLIFKVSNRLSGVPDRFSGSGSGTDFTLNISRVEAADLGIYSCFQGSHVPFTFGSGTKLEIK
notes: IgE (IGHE, IGKC) from HDM-exposed mouse, BoneMarrow
B13: IgE mAb 13_2 (antibody, V domains shown)
VH: EVQLQQSGPELVKPGASVKISCKASGYTFTDYYMNWVKQSHGKSLEWIGDINPNNGGTSYNQKFKGKATLTVDKSSSTAYMELRSLTSEDSAVYYCAYGPPRGPPWFAYWGQGTLVTVSA
VL: DIVLTQSPASLAVSLGQRATISCRASKSVSTSGYSYMHWYQQKPGQPPKLLIYLASNLESGVPARFSGSGSGTDFTLNIHPVEEEDAATYYCQHSRELPWTFGGGTKLEIK
notes: as for B11

target: T3, human IL-4Rα (hIL-4Rα) monomeric protein (human, UniProt P24394 26-232, limits assumed); experiment: barcoded-antigen count on source cell (scRNA-seq)
T3 construct: also called hIL-4Rα antigen; barcoded hIL-4Rα

REGN560.L15_ab_raw	Binder
4410 counts	B1
3180 counts	B2
7910 counts	B3
4140 counts	B4
10400 counts	B5
10600 counts	B6
9450 counts	B7
9190 counts	B8
6320 counts	B9

target: T1, Der p 2; experiment: antigen specificity score against Ole e 1 from barcode counts of single IgE PCs [cont.]
Procedure: Antigen specificity score (AgSS) for IgG were calculated by subtracting the quantile of hIL-6Rα barcoded UMI counts multiplied by a penalty factor (x) from the quantile of hIL-4Rα barcoded UMI counts, AgSS=Q_hIL-4Rα-Q_hIL-6Rα^x. AgSS for IgE were calculated with a similar formula for mouse and human single cell data. For IgE scores the target antigens were either Der p1, Der p2 or Der f1 and the control was always Ole e1.
Following processing of the three single-cell libraries, the gene expression and V(D)J region sequencing data were used to subset PCs with a valid IgE constant region and detectable expression of IgE and CD79a but lacking the expression of Ms4a1 and CD19 typically found in non-PC B cells. IgE-expressing PCs were then assessed for differential expression against additional IgA, IgG, and IgM plasma cell isotypes to further characterize the unique transcriptional signature of IgE-secreting PCs. IgE-secreting PCs were then assessed for antigen specificity by comparing the normalized levels of the target antigens, namely, Der p 1, Der p 2, or Der f 1, against the normalized level of the control antigen Ole e 1. This was performed by calculating an empirical score for each target antigen and subtracting the […] with a penalty factor. The formula used to do is set forth below: […]

Antigen Score	Binder
0.336	B10

target: T1, Der p 2; experiment: barcoded antigen sequencing of single IgE PCs with trapped IgE [cont.]
Description: (§1) The barcoded antigen library was mapped by the CellRanger software to a custom short-read reference that contained the DNA tag sequences of the four barcoded antigens, namely, Der p 1, Der p 2, Der f 1 and Ole e 1. These tag sequences were quantified across all cells and were normalized by taking the centered log-ratio (CLR) per barcoded antigen across each sample capture. In addition, background antigen signal for each barcoded antigen was removed by DSB (Denoised and Scaled by Background). Both the CLR and the DSB normalized values were used to quantify the target antigen signals, namely, those for Der p 1, Der p 2 and Der f 1, against the control signal, namely, that for Ole e 1.

Normalized Barcode Count	Binder
0.58	B10

target: T3, human IL-4Rα (hIL-4Rα) monomeric protein; experiment: Biacore (SPR)

Kd	Binder
23.8 nM	B1
34.5 nM	B2
58.1 nM	B3
136 nM	B4
112 nM	B5
97.6 nM	B6
146 nM	B7
54.8 nM	B8
537 nM	B9

target: T2, Ole e 1; experiment: barcoded-antigen count on source cell

Olee1_ab_raw	Binder
3 counts	B11
0 counts	B12
1 counts	B13

target: T1, Der p 2; experiment: barcoded-antigen count on source cell

Derp2_ab_raw	Binder
6 counts	B11
22 counts	B12
46 counts	B13

target: T1, Der p 2; experiment: ELISA, coated Der p2
Procedure: After selecting allergen-specific antibodies, relative binding to Der p 1, Der p 2, and Der f 1 were quantified by ELISA. […] Specifically, binding microtiter plates were coated with 100 μl of 2 μg/mL of natural Der p 1, Der p 2, Der f 1, and Ole e 1 in PBS overnight at 4′C. IgE antibodies were prepared at a concentration of 1 μg/mL and serially diluted three-fold in PBS with 0.5% w/v BSA. After washing with 0.05% v/v Tween® 20 in PBS and blocking in PBS with 0.5% w/v BSA, 100 μl of the diluted IgE antibodies were transferred to the plates and incubated for one hour at ambient temperature. Subsequently, 100 μL of anti-mouse IgE antibody conjugated to horse-radish peroxidase (HRP) diluted at 1:5000 was added. The plates were then incubated for one hour at ambient temperature, and washed in 0.05% v/v/Tween® 20 in PBS. Subsequently, the HRP substrate 3,3′,5,5′-tetramethylbenzidine (TMB) was added. The reaction was stopped (with 100 μL of sulfuric acid 2.0 N) and optical density values determined using a plate reader at 450 nm.

Binder	binding result
B11	no binding (tested: about 6e-9 M (log10 M about -8.25))

target: T1, Der p 2; experiment: barcode rank score against control Ole e 1

Derp2_ab_rank	Binder
0.336	B11
0.837	B12
0.858	B13

target: T2, Ole e 1; experiment: centered log-ratio of barcode count
Description: as §1

Olee1_ab_clr	Binder
0.603	B11
-1.13	B12
0.0287	B13

target: T1, Der p 2; experiment: centered log-ratio of barcode count
Description: as §1

Derp2_ab_clr	Binder
0.58	B11
0.655	B12
1.62	B13

target: T1, Der p 2; experiment: barcoded antigen sequencing of single IgE PCs with trapped IgE

Raw Antigen Barcode Count	Binder
6	B10

target: T3, human IL-4Rα (hIL-4Rα) monomeric protein; experiment: Biacore (SPR); negative log10 of Kd

negLog10Kd	Binder
7.62	B1
7.46	B2
7.24	B3
6.87	B4
6.95	B5
7.01	B6
6.84	B7
7.26	B8
6.27	B9
